Measurements published in patent US8703918.

Target: prostate specific membrane antigen (PSMA) (human) (UniProt Q04609)
Test: FACS on LNCaP (PSMA+) cells; negative control, background signal

Sequence of prostate specific membrane antigen (PSMA) (human) (Q04609 whole entry): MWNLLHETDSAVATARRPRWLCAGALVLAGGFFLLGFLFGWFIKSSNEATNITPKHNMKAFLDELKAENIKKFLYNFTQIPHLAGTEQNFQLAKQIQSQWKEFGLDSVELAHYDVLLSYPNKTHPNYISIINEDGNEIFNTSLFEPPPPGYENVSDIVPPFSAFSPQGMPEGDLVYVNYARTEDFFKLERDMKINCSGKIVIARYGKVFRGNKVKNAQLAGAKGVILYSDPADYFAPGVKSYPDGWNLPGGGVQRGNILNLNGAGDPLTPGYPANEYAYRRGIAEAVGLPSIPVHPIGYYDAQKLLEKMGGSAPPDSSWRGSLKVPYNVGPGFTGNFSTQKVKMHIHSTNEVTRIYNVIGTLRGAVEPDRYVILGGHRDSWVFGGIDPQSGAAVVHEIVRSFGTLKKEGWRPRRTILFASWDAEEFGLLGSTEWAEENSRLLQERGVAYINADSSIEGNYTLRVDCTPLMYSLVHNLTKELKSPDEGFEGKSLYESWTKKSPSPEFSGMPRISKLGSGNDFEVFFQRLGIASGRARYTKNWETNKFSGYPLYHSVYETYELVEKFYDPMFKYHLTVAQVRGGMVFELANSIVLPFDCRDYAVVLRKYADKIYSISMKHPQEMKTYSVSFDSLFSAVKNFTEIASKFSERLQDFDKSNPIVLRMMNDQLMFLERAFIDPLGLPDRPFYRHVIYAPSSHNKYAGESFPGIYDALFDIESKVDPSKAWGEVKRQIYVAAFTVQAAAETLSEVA

MFI: 161 MFI
Substance: avidin-FITC
